This is an account of results in patent publication US20230174598A1 (UNIVERSITY OF FLORIDA RESEARCH FOUNDATION, published 2023).

Experiment [1] concerns the target T1, bovine enolase-1 (bovine, UniProt Q9XSJ4 1-434, AlexaFluor-546 maleimide on reactive cysteines (pulldown assay only; unlabeled in the quench and activity assays)). Nature of the experiment: KI quench protection of mBBr-labeled arrestin-1; 0.25 µM arrestin-1, 5 µM (20-fold) enolase-1. As for the experimental part: C. Quenching assay. Cysteine mutants of arrestin-1 were labeled with monobromobimane (mBBr, ThermoFisher), reacting the arrestin-1 protein with 100-fold molar excess of the fluorescent label for two hours at room temperature. The unreacted label was removed by dialyzing against three sequential changes of 500-volumes of LAP200 buffer. […] Fluorescence quenching of the mBBr fluorophore was performed using 0.25 μM mBBr-labeled arrestin-1 with 100 mM potassium iodide in the presence or absence of 5 μM bovine enolase-1 that had been heterologously expressed and purified as previously described for arrestin-1, monitoring fluorescence emission at 470 nm. To determine the degree to which enolase-1 shielded a residue from quenching by potassium iodide, a protection factor was calculated as follows: […]
C. Mapping interaction of arrestin-1 with enolase-1. […] The fluorescence emission of the mBBr-labeled arrestin-1 with and without potassium iodide was measured to determine the range of quenching by KI. The fluorescence emission quench by KI with and without enolase-1 was then measured. A quench protection factor was calculated as described in the experimental procedures (Table 2). […] When mapped onto the surface of the arrestin-1 structure, these residues largely mapped to a single surface along the “bottom” of the arrestin protein (FIG. 2B).

The target in experiment [2] is T1, bovine enolase-1. The experiment is described as follows: cell-based or functional assay.

Substitutions are numbered along the chain they refer to. Names may count otherwise.

T1 sequence (Q9XSJ4 whole entry): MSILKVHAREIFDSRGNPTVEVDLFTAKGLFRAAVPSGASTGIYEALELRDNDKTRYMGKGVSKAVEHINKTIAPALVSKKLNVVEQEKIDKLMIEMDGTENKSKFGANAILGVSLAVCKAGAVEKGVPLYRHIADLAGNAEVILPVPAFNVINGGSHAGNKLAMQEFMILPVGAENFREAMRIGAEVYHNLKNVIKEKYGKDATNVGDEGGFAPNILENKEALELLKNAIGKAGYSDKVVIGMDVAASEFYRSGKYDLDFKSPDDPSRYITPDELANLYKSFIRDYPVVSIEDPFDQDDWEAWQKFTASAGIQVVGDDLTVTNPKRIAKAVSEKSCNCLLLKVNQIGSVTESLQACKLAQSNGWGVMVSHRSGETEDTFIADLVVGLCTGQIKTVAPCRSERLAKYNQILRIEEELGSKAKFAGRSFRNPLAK

For “Y25C arrestin-1 (bovine, His(6), C63A/C143A) labeled with monobromobimane (from UniProt P08168 2-404)”, in experiment [1], the F(A+E+K) (fluorescence with enolase-1 and KI) stood at 600; the Pf (quench protection factor) is -0.011.

In experiment [1], “E393C arrestin-1 (bovine, His(6), C63A/C143A) labeled with monobromobimane (from UniProt P08168 2-404)” registered a F(A+E+K) (fluorescence with enolase-1 and KI) of 953; a Pf (quench protection factor) of 0.134.

In experiment [1], “I72C arrestin-1 (bovine, His(6), C63A/C143A) labeled with monobromobimane (from UniProt P08168 2-404)” had a F(A+E+K) (fluorescence with enolase-1 and KI) of 630; a Pf (quench protection factor) of 0.002.

In experiment [1], “V139C arrestin-1 (bovine, His(6), C63A/C143A) labeled with monobromobimane (from UniProt P08168 2-404)” came in with a F(A+E+K) (fluorescence with enolase-1 and KI) of 778; a Pf (quench protection factor) of -0.001.

On to “Y125C arrestin-1 (bovine, His(6), C63A/C143A) labeled with monobromobimane (from UniProt P08168 2-404)”, for which, in experiment [1], the F(A+E+K) (fluorescence with enolase-1 and KI) is 14000; the Pf (quench protection factor) was found to be 0.012.

In experiment [1], “S86C arrestin-1 (bovine, His(6), C63A/C143A) labeled with monobromobimane (from UniProt P08168 2-404)” displayed a F(A+E+K) (fluorescence with enolase-1 and KI) of 6160; a Pf (quench protection factor) of 0.073.

As for “W194C arrestin-1 (bovine, His(6), C63A/C143A) labeled with monobromobimane (from UniProt P08168 2-404)”, in experiment [1], the F(A+E+K) (fluorescence with enolase-1 and KI) came out at 14000; the Pf (quench protection factor) was 0.012.

In experiment [1], “R18C arrestin-1 (bovine, His(6), C63A/C143A) labeled with monobromobimane (from UniProt P08168 2-404)” returned a F(A+E+K) (fluorescence with enolase-1 and KI) of 963; a Pf (quench protection factor) of -0.005.

For the molecule “S199C arrestin-1 (bovine, His(6), C63A/C143A) labeled with monobromobimane (from UniProt P08168 2-404)”, in experiment [1], the F(A+E+K) (fluorescence with enolase-1 and KI) was 636; the Pf (quench protection factor) is -0.001.

In experiment [1], “S231C arrestin-1 (bovine, His(6), C63A/C143A) labeled with monobromobimane (from UniProt P08168 2-404)” had a F(A+E+K) (fluorescence with enolase-1 and KI) of 695; a Pf (quench protection factor) of 0.002.

For the molecule “D317C arrestin-1 (bovine, His(6), C63A/C143A) labeled with monobromobimane (from UniProt P08168 2-404)”, in experiment [1], the F(A+E+K) (fluorescence with enolase-1 and KI) came out at 11500; the Pf (quench protection factor) was 0.002.

In experiment [1], “S251C arrestin-1 (bovine, His(6), C63A/C143A) labeled with monobromobimane (from UniProt P08168 2-404)” yielded a F(A+E+K) (fluorescence with enolase-1 and KI) of 730; a Pf (quench protection factor) of 0.011.

B1: E361G arrestin-1 variant (bovine) (other)
chain: MHHHHHHKANKPAPNHVIFKKISRDKSVTIYLGKRDYIDHVERVEPVDGVVLVDPELVKGKRVYVSLTCAFRYGQEDIDVMGLSFRRDLYFSQVQVFPPVGASGATTRLQESLIKKLGANTYPFLLTFPDYLPCSVMLQPAPQDVGKSCGVDFEIKAFATHSTDVEEDKIPKKSSVRLLIRKVQHAPRDMGPQPRAEASWQFFMSDKPLRLAVSLSKEIYYHGEPIPVTVAVTNSTEKTVKKIKVLVEQVTNVVLYSSDYYIKTVAAEEAQEKVPPNSSLTKTLTLVPLLANNRERRGIALDGKIKHEDTNLASSTIIKEGIDKTVMGILVSYQIKVKLTVSGLLGELTSSEVATEVPFRLMHPQPGDPDTAKESFQDENFVFEEFARQNLKDAGEYKEEKTDQEAAMDE
On to B1, for which the “% inhibition of enolase-1 catalytic activity” value (“% inhibition” below) in experiment [2] worked out at 18.3%.

B2: E361A/D362G arrestin-1 variant (bovine) (other)
chain: B1 chain with G367A, D368G
With B2, the “% inhibition” value in experiment [2] was found to be 1.3%.

B3: D362G arrestin-1 variant (bovine) (other)
chain: B1 chain with G367E, D368G
In the case of B3, the “% inhibition” value in experiment [2] was determined as 20.7%.

B4: E361A/D362A arrestin-1 variant (bovine) (other)
chain: B1 chain with G367A, D368A
Turning to B4, the “% inhibition” value in experiment [2] is 9%.

B5: E361A arrestin-1 variant (bovine) (other)
chain: B1 chain with G367A
Take B5: in experiment [2], the “% inhibition” value turned out to be 21.1%.

B6: D362A arrestin-1 variant (bovine) (other)
chain: B1 chain with G367E, D368A
For B6, the “% inhibition” value in experiment [2] is 22.2%.

B7: E361G/D362A arrestin-1 variant (bovine) (other)
chain: B1 chain with D368A
Turning to B7, the “% inhibition” value in experiment [2] came out at 8.3%.

B8: E50C arrestin-1 (bovine, His(6), C63A/C143A) labeled with monobromobimane (other)
chain: B1 chain with E56C, C69A, C149A, G367E
modifications: monobromobimane (mBBr) on Cys 50
notes: Cysteine-substitution mutant, made in Pichia pastoris
Regarding B8, in experiment [1], the “F(A+E+K) (fluorescence with enolase-1 and KI)” value is 8140; the “Pf (quench protection factor)” value came out at 0.297.

B9: R37C arrestin-1 (bovine, His(6), C63A/C143A) labeled with monobromobimane (other)
chain: B1 chain with R43C, C69A, C149A, G367E
modifications: monobromobimane (mBBr) on Cys 37
notes: as for B8
For B9, in experiment [1], the “F(A+E+K) (fluorescence with enolase-1 and KI)” value turned out to be 16600; the “Pf (quench protection factor)” value is 0.564.

B10: K28C arrestin-1 (bovine, His(6), C63A/C143A) labeled with monobromobimane (other)
chain: B1 chain with K34C, C69A, C149A, G367E
modifications: monobromobimane (mBBr) on Cys 28
notes: as for B8
B10: in experiment [1], the “F(A+E+K) (fluorescence with enolase-1 and KI)” value came to 17200; the “Pf (quench protection factor)” value stood at 0.732.

B11: R189C arrestin-1 (bovine, His(6), C63A/C143A) labeled with monobromobimane (other)
chain: B1 chain with C69A, C149A, R195C, G367E
modifications: monobromobimane (mBBr) on Cys 189
notes: as for B8
For B11, in experiment [1], the “F(A+E+K) (fluorescence with enolase-1 and KI)” value was 11100; the “Pf (quench protection factor)” value was 0.467.

B12: K53C arrestin-1 (bovine, His(6), C63A/C143A) labeled with monobromobimane (other)
chain: B1 chain with K59C, C69A, C149A, G367E
modifications: monobromobimane (mBBr) on Cys 53
notes: as for B8
As to B12, in experiment [1], the “F(A+E+K) (fluorescence with enolase-1 and KI)” value came out at 11000; the “Pf (quench protection factor)” value was 0.314.

B13: K267C arrestin-1 (bovine, His(6), C63A/C143A) labeled with monobromobimane (other)
chain: B1 chain with C69A, C149A, K273C, G367E
modifications: monobromobimane (mBBr) on Cys 267
notes: as for B8
With B13, in experiment [1], the “F(A+E+K) (fluorescence with enolase-1 and KI)” value was determined as 2850; the “Pf (quench protection factor)” value stood at 0.484.

B14: D362C arrestin-1 (bovine, His(6), C63A/C143A) labeled with monobromobimane (other)
chain: B1 chain with C69A, C149A, G367E, D368C
modifications: monobromobimane (mBBr) on Cys 362
notes: as for B8
Consider B14, for which, in experiment [1], the “F(A+E+K) (fluorescence with enolase-1 and KI)” value is 5490; the “Pf (quench protection factor)” value was determined as 1.2.

B15: V94C arrestin-1 (bovine, His(6), C63A/C143A) labeled with monobromobimane (other)
chain: B1 chain with C69A, V100C, C149A, G367E
modifications: monobromobimane (mBBr) on Cys 94
notes: as for B8
Regarding B15, in experiment [1], the “F(A+E+K) (fluorescence with enolase-1 and KI)” value was 1900; the “Pf (quench protection factor)” value came to 0.062.

B16: K166C arrestin-1 (bovine, His(6), C63A/C143A) labeled with monobromobimane (other)
chain: B1 chain with C69A, C149A, K172C, G367E
modifications: monobromobimane (mBBr) on Cys 166
notes: as for B8
As to B16, in experiment [1], the “F(A+E+K) (fluorescence with enolase-1 and KI)” value was determined as 1040; the “Pf (quench protection factor)” value was 0.026.

B17: D183C arrestin-1 (bovine, His(6), C63A/C143A) labeled with monobromobimane (other)
chain: B1 chain with C69A, C149A, D189C, G367E
modifications: monobromobimane (mBBr) on Cys 183
notes: as for B8
B17: in experiment [1], the “F(A+E+K) (fluorescence with enolase-1 and KI)” value is 19200; the “Pf (quench protection factor)” value was found to be 0.787.

B18: E218C arrestin-1 (bovine, His(6), C63A/C143A) labeled with monobromobimane (other)
chain: B1 chain with C69A, C149A, E224C, G367E
modifications: monobromobimane (mBBr) on Cys 218
notes: as for B8
For B18, in experiment [1], the “F(A+E+K) (fluorescence with enolase-1 and KI)” value worked out at 9500; the “Pf (quench protection factor)” value is 1.08.

B19: V281C arrestin-1 (bovine, His(6), C63A/C143A) labeled with monobromobimane (other)
chain: B1 chain with C69A, C149A, V287C, G367E
modifications: monobromobimane (mBBr) on Cys 281
notes: as for B8
For B19, in experiment [1], the “F(A+E+K) (fluorescence with enolase-1 and KI)” value was 2440; the “Pf (quench protection factor)” value amounted to 0.269.

B20: E361G/D362G arrestin-1 variant (bovine, His(6)-tagged) (other)
chain: B1 chain with D368G
Regarding B20, the “% inhibition” value in experiment [2] is 0.7%.

B21: E302C arrestin-1 (bovine, His(6), C63A/C143A) labeled with monobromobimane (other)
chain: B1 chain with C69A, C149A, E308C, G367E
modifications: monobromobimane (mBBr) on Cys 302
notes: as for B8
As for B21, in experiment [1], the “F(A+E+K) (fluorescence with enolase-1 and KI)” value worked out at 3680; the “Pf (quench protection factor)” value was found to be 0.772.

B22: S210C arrestin-1 (bovine, His(6), C63A/C143A) labeled with monobromobimane (other)
chain: B1 chain with C69A, C149A, S216C, G367E
modifications: monobromobimane (mBBr) on Cys 210
notes: as for B8
Regarding B22, in experiment [1], the “F(A+E+K) (fluorescence with enolase-1 and KI)” value worked out at 8720; the “Pf (quench protection factor)” value amounted to 0.618.

B23: A113C arrestin-1 (bovine, His(6), C63A/C143A) labeled with monobromobimane (other)
chain: B1 chain with C69A, A119C, C149A, G367E
modifications: monobromobimane (mBBr) on Cys 113
notes: as for B8
Take B23: in experiment [1], the “F(A+E+K) (fluorescence with enolase-1 and KI)” value came out at 3460; the “Pf (quench protection factor)” value is 0.109.
